The series deals with Lys119 (UniProt position 119, IPVLRKDFVVQ). Description: kinetics. Conditions: 25 °C; 100 mM NaCl in MTEN buffer (said to have minimal change in ionic strength with pH); Steady-state turnover with CdRP (60 µM) above KM; enzyme 0.25-60 µM depending on variant.

In general, pKa refers to the negative logarithm of the acid dissociation constant. Higher therefore signals a weaker acid or stronger base.

“Indole-3-glycerol phosphate synthase (MtIGPS), wild type (Mycobacterium tuberculosis)”: the pKa was determined as 9.0 ± 0.1.
Substance “MtIGPS Glu57Asp (Mycobacterium tuberculosis; E57D)” gave a pKa of 7.7 ± 0.1.
“MtIGPS Glu219Asn (Mycobacterium tuberculosis; E219N)”: the pKa is listed as 10.0 ± 0.2.
“MtIGPS Glu219Asp (Mycobacterium tuberculosis; E219D)” came in with a pKa of 7.6 ± 0.2.
“MtIGPS Glu219Gln (Mycobacterium tuberculosis; E219Q)”: the pKa is given as 9.9 ± 0.1.

(Values after article PMC10591298.)
